Laboratory results published in US7067268.
No end group written: not given here.

Experiments:
P2L-1Ta [1] = experiment: competitive EIA: unlabeled antigen varied against HRP-labeled 19P2 ligand (12-25) on P2L-1Ta
P2L-1Ca = experiment: competitive EIA: unlabeled antigen varied against HRP-labeled 19P2 ligand (17-31) on P2L-1C
P2L-2Ca [2] = experiment: competitive EIA on P2L-2C; ratio of the antigen concentrations giving (B/B0)=0.5
P2L-3Ta [3] = experiment: competitive EIA: unlabeled antigen varied against HRP-labeled 19P2 ligand (12-25) on P2L-3Ta
[4] = biological target: these antibodies (P2L-1Ta, P2L-3Ta, P2L-2Ta and P2L-4Ta); experiment: competitive EIA against HRP-labeled 19P2 ligand (12-25); P2L-1Ta, P2L-3Ta, P2L-2Ta, P2L-4Ta (FIG. 9)
P2L-2Ca [5] = experiment: competitive EIA: unlabeled antigen varied against HRP-labeled 19P2 ligand (17-31) on P2L-2C
P2L-3Ta [6] = experiment: competitive EIA against HRP-labeled 19P2 ligand (12-25); 'higher' as printed, though 25 nM against 4 nM points to lower
P2L-1Ta [7] = experiment: competitive EIA on P2L-1Ta; FIG. 7(a)
P2L-3Ta [8] = experiment: competitive EIA against HRP-labeled 19P2 ligand (12-25); sentence prints 'P2L-1Ta' but stands in the P2L-3Ta passage and cites FIG. 7(b)

Binder | IC50 (P2L-1Ta [1]) [nM] | antigen concentration detected, (B/B0)=0.9 (P2L-1Ta [1]) [nM] | IC50 (P2L-1Ca) [nM] | fold of the reactivity against bovine 19P2 ligand (1-31) (P2L-2Ca [2]) [fold] | fold of the reactivity against rat 19P2 ligand (1-31) (P2L-2Ca [2]) [fold] | IC50 (P2L-3Ta [3]) [nM] | IC50 [4] [nM] | IC50 (P2L-2Ca [5]) [nM] | fold of the reactivity against human 19P2 ligand (1-31) (P2L-3Ta [6]) [fold] | fold of the reactivity against human 19P2 ligand (1-31) (P2L-1Ta [7]) [fold] | IC50 (P2L-3Ta [8]) [nM] | fold of the reactivity against human 19P2 ligand (1-31) (P2L-3Ta [8]) [fold]
SRTHRHSMEIRTPDINPAWYASRGIRPVGRX (C-terminal amide) [Human 19P2 ligand (1-31)] | 4 | 0.1 | 3 | 33 | 130 | 4 | 3 to 50 | 1.5 | – | – | – | –
SRAHQHSMEIRTPDINPAWYAGRGIRPVGRF-NH2 [Bovine 19P2 ligand (1-31)] | – | – | – | – | – | – | – | 50 | – | – | – | –

Results, then the binder that gave them:

IC50 (P2L-1Ta [1]) [nM] | antigen concentration detected, (B/B0)=0.9 (P2L-1Ta [1]) [nM] | IC50 (P2L-1Ca) [nM] | fold of the reactivity against bovine 19P2 ligand (1-31) (P2L-2Ca [2]) [fold] | fold of the reactivity against rat 19P2 ligand (1-31) (P2L-2Ca [2]) [fold] | IC50 (P2L-3Ta [3]) [nM] | IC50 [4] [nM] | IC50 (P2L-2Ca [5]) [nM] | fold of the reactivity against human 19P2 ligand (1-31) (P2L-3Ta [6]) [fold] | fold of the reactivity against human 19P2 ligand (1-31) (P2L-1Ta [7]) [fold] | IC50 (P2L-3Ta [8]) [nM] | fold of the reactivity against human 19P2 ligand (1-31) (P2L-3Ta [8]) [fold] | Binder
1 | – | – | – | – | – | – | 200 | 6 | 4 | 25 | – | SRAHQHSMETRTPDINPAWYTGRGIRPVGRF-NH2 [Rat 19P2 ligand (1-31)]
4 | – | – | – | – | – | – | – | – | – | 7 | 0.5 | TPDINPAWYASRGIRPVGRF-NH2 [Human 19P2 ligand (12-31)]
